Results as given in publication PMC12204343, “Regulatory Role of Serine59 in the Oligomeric Dynamics and Chaperone Function of αB-Crystallin” (Research Square, 2025).

How the values were obtained:
[1] = target: αB-crystallin (UniProt P02511); assay: SEC-MALS of homo-oligomer mass; TEM; settings: reference: wild type; sites S59
[2] = target: Luciferase (UniProt P08659 1-550 = luciferase); assay: cell-based or functional assay
[3] = target: T1, Alcohol dehydrogenase (UniProt P00330 1-348); assay: cell-based or functional assay
T1 sequence (looked up): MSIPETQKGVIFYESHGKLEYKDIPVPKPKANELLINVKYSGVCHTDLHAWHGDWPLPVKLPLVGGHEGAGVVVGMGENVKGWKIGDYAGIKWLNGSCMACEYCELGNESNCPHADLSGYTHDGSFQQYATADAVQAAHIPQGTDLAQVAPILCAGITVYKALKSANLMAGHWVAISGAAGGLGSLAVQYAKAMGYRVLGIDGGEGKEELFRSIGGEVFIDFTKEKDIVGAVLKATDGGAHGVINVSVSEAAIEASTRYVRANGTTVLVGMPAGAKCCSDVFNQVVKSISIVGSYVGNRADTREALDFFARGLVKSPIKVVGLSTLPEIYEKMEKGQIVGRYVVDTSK

[4] = target: Lysozyme (UniProt P00698 19-147); assay: cell-based or functional assay
Sequence of Lysozyme (P00698 19-147): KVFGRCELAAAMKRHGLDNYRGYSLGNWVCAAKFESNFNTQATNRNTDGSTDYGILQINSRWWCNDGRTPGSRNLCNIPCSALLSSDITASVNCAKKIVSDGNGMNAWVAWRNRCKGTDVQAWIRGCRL

[5] = target: the molecule itself; assay: SEC-MALS; HPLC coupled with MALS; proteins (0.15 mg in 0.05 mL) incubated at 37°C for 1 hour before analysis; self-association into oligomers
[6] = target: the molecule itself; assay: negative-stain transmission electron microscopy; 0.05 mg/mL on glow-discharged carbon grids, 2% uranyl acetate; oligomers of the chaperone protein alone

Sequence of Luciferase (P08659 whole entry): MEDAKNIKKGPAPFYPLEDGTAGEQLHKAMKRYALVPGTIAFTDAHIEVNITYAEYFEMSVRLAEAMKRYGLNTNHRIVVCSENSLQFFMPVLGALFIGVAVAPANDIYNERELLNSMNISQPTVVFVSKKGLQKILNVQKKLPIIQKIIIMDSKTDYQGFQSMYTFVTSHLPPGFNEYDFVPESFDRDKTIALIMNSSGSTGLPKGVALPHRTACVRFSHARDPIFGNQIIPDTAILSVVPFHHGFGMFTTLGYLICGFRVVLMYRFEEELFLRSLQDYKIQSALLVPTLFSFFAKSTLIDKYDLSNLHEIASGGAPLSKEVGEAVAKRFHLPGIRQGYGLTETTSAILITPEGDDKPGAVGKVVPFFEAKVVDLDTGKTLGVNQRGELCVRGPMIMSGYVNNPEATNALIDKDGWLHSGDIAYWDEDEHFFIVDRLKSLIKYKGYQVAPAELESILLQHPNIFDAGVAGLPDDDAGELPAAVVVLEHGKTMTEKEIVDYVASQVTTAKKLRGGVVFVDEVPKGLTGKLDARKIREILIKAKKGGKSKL

Molecule: αB-crystallin (from UniProt P02511) ΔS59
- other: average oligomeric mass [1]: same; reference 579

Molecule: αB-crystallin (from UniProt P02511) S59D
- other: average oligomeric mass [1]: weaker; reference 579

B1: wild-type αB-crystallin (natural protein, human, UniProt P02511 1-175, looked up)
chain: MDIAIHHPWIRRPFFPFHSPSRLFDQFFGEHLLESDLFPTSTSLSPFYLRPPSFLRAPSWFDTGLSEMRLEKDRFSVNLDVKHFSPEELKVKVLGDVIEVHGKHEERQDEHGFISREFHRKYRIPADVDPLTITSSLSSDGVLTVNGPRKQVSGPERTIPITREEKPAVTAAPKK
notes: αB-crystallin, human, wild type; forms large polydisperse oligomers; no tag is mentioned; also called αB-WT; WT-αB; source: E. coli BL21(DE3)pLysS, purified (Q-Sepharose, Superdex and Superose 6 size exclusion, ammonium sulphate)
- EC50 of suppression of luciferase (0.5 μM) aggregation, light scattering at 360 nm, 90 min, PBS, 37°C [2]: 4300 nM
- EC50 of suppression of ADH (2.5 μM) aggregation, light scattering at 360 nm, 90 min, PBS + 50 mM EDTA, 37°C [3]: 1000 nM
- protection against DTT-induced lysozyme (10 μM) aggregation, 2.5 μM chaperone, PBS, 2 mM DTT, 37°C, 6 hours [4]: ~52%
- binding result [5]: binds

B2: αB-crystallin S59A (natural protein, human, UniProt P02511 1-175, looked up)
chain: MDIAIHHPWIRRPFFPFHSPSRLFDQFFGEHLLESDLFPTSTSLSPFYLRPPSFLRAPAWFDTGLSEMRLEKDRFSVNLDVKHFSPEELKVKVLGDVIEVHGKHEERQDEHGFISREFHRKYRIPADVDPLTITSSLSSDGVLTVNGPRKQVSGPERTIPITREEKPAVTAAPKK
notes: αB-crystallin, human, with the substitution S59A; Made by site-directed mutagenesis; called the control mutant; also called αB-S59A; source: E. coli BL21(DE3)pLysS, purified (Q-Sepharose, Superdex and Superose 6 size exclusion, ammonium sulphate)
- EC50 of suppression of luciferase (0.5 μM) aggregation, light scattering at 360 nm, 90 min, PBS, 37°C [2]: 13700 nM
- EC50 of suppression of ADH (2.5 μM) aggregation, light scattering at 360 nm, 90 min, PBS + 50 mM EDTA, 37°C [3]: 1400 nM
- protection against DTT-induced lysozyme (10 μM) aggregation, 2.5 μM chaperone, PBS, 2 mM DTT, 37°C, 6 hours [4]: 84%
- other: average oligomeric mass [1]: stronger; reference 579
- binding result [5]: binds

B3: αB-crystallin S59D (phosphomimetic mutant) (natural protein, human, UniProt P02511 1-175, looked up)
chain: MDIAIHHPWIRRPFFPFHSPSRLFDQFFGEHLLESDLFPTSTSLSPFYLRPPSFLRAPDWFDTGLSEMRLEKDRFSVNLDVKHFSPEELKVKVLGDVIEVHGKHEERQDEHGFISREFHRKYRIPADVDPLTITSSLSSDGVLTVNGPRKQVSGPERTIPITREEKPAVTAAPKK
notes: αB-crystallin, human, with the phosphomimetic substitution S59D; Made by site-directed mutagenesis; also called αB-S59D; αBS59D; source: E. coli BL21(DE3)pLysS, purified (Q-Sepharose, Superdex and Superose 6 size exclusion, ammonium sulphate)
- EC50 of suppression of luciferase (0.5 μM) aggregation, light scattering at 360 nm, 90 min, PBS, 37°C [2]: 1100 nM
- EC50 of suppression of ADH (2.5 μM) aggregation, light scattering at 360 nm, 90 min, PBS + 50 mM EDTA, 37°C [3]: 500 nM
- binding result [5]: binds

B4: αB-crystallin ΔS59 (deletion of Serine 59) (natural protein, human, UniProt P02511 1-175, looked up)
chain: MDIAIHHPWIRRPFFPFHSPSRLFDQFFGEHLLESDLFPTSTSLSPFYLRPPSFLRAPWFDTGLSEMRLEKDRFSVNLDVKHFSPEELKVKVLGDVIEVHGKHEERQDEHGFISREFHRKYRIPADVDPLTITSSLSSDGVLTVNGPRKQVSGPERTIPITREEKPAVTAAPKK
notes: αB-crystallin, human, with Serine 59 deleted; Made by site-directed mutagenesis; also called αB-ΔS59; source: E. coli BL21(DE3)pLysS, purified (Q-Sepharose, Superdex and Superose 6 size exclusion, ammonium sulphate)
- EC50 of suppression of luciferase (0.5 μM) aggregation, light scattering at 360 nm, 90 min, PBS, 37°C [2]: 8300 nM
- EC50 of suppression of ADH (2.5 μM) aggregation, light scattering at 360 nm, 90 min, PBS + 50 mM EDTA, 37°C [3]: 1200 nM
- protection against DTT-induced lysozyme (10 μM) aggregation, 2.5 μM chaperone, PBS, 2 mM DTT, 37°C, 6 hours [4]: 60%
- binding result [5]: binds

B5: αB-crystallin with residues 54–61 deleted (natural protein, human, UniProt P02511 1-175, looked up)
chain: MDIAIHHPWIRRPFFPFHSPSRLFDQFFGEHLLESDLFPTSTSLSPFYLRPPSDTGLSEMRLEKDRFSVNLDVKHFSPEELKVKVLGDVIEVHGKHEERQDEHGFISREFHRKYRIPADVDPLTITSSLSSDGVLTVNGPRKQVSGPERTIPITREEKPAVTAAPKK
notes: αB-crystallin, human, with residues 54–61 deleted; also called αB-Δ54–61; αBΔ54–61
- EC50 of suppression of luciferase (0.5 μM) aggregation, light scattering at 360 nm, 90 min, PBS, 37°C [2]: 1200 nM
- chaperone efficiency against ADH (2.5 μM) aggregation relative to αB-S59D, light scattering at 360 nm, 90 min, PBS + 50 mM EDTA, 37°C [3]: 1.6 fold
- protection against DTT-induced lysozyme (10 μM) aggregation, 2.5 μM chaperone, PBS, 2 mM DTT, 37°C, 6 hours [4]: > 95%
- binding result [6]: binds
